Data on one molecule can be found in patent US20140274782A1, “AFFINITY REAGENTS AND METHODS FOR DETECTION, PURIFICATION, AND PROTEOMIC ANALYSIS OF METHYLATED PROTEINS” (The Board of Trustees of the Leland Stanford Junior …, priority 2013, published 2014).

Holding throughout (assay): ProtoArray, GST-treated control array
Common to all, as to settings: remark: other sources report otherwise

The target in assay [1] is C12orf23-chromosome 12 open reading frame 23 (C12orf23) (human), Q8WUH6.
Assay [2] has as its target UBE2D2-Ubiquitin-conjugating enzyme E2 D2 (human), P62837.
Assay [3] deals with YPEL5-yippee-like 5 (Drosophila) (YPEL5) (human), P62699.
Sequence of YPEL5-yippee-like 5 (Drosophila) (YPEL5) (human), P62699 (P62699 whole entry): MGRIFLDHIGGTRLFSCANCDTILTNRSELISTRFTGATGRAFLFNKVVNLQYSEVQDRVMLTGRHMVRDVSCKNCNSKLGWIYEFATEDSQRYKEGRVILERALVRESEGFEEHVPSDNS

Sequence of UBE2D2-Ubiquitin-conjugating enzyme E2 D2 (human), P62837 (P62837 whole entry): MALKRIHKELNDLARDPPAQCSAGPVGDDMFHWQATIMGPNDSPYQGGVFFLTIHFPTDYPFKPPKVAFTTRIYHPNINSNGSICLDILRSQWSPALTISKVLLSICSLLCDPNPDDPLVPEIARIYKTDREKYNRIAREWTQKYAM

B1: 3× Flag-3×MBT (designed binder, not shown: a dimerising Fc or GST)
chain: EEWSSSQPATGEKKECWSWESYLEEQKAITAPVSLFQDSQAVTHNKNGFKLGMKLEGIDPQHPSMYFILTVAEVCGYRLRLHFDGYSECHDFWVNANSPDIHPAGWFEKTGHKLQPPKGYKEEEFSWSQYLRSTRAQAAPKHLFVSQSHSPPPLGFQVGMKLEAVDRMNPSLVCVASVTDVVDSRFLVHFDNWDDTYDYWCDPSSPYIHPVGWCQKQGKPLTPPQDYPDPDNFCWEKYLEETGASAVPTWAFKVRPPHSFLVNMKLEAVDRRNPALIRVASVEDVEDHRIKIHFDGWSHGYDFWIDADHPDIHPAGWCSKTGHPLQPPLGPREPSSASPGG
For B1, the GST Average SNR in assay [1] was 0.48; in assay [2], -0.383; in assay [3] it was -0.787.
